Assay [1] has as its target T1, human IL-18BP (recombinant, construct not stated) (UniProt O95998 31-194).
T1 chain: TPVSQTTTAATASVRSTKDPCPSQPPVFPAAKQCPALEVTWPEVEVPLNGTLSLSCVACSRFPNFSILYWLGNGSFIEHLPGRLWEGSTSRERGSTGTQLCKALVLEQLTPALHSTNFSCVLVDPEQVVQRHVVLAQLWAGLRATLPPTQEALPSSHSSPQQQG
The assay is described as follows: blocking ELISA. (An ELISA detects its analyte on a solid surface through an enzyme-linked reagent.)

For another assay, the target named is Cyno IL18-IL18BP (cynomolgus monkey). Nature of the assay: blocking ELISA.

As a reminder, the IC50 is the point on the concentration scale where inhibition reaches its midpoint.

B1: ADI-66692 (antibody, V domains shown)
VH: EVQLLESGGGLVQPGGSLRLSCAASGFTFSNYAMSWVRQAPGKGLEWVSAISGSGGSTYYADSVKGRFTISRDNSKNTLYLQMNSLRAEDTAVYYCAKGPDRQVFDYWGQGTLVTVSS
VL: DIQMTQSPSSVSASVGDRVTITCRASQGIDSWLAWYQQKPGKAPKLLIYAASSLQSGVPSRFSGSGSGTDFTLTISSLQPEDFATYYCQHAYSFPYTFGGGTKVEIK
With B1, the half-maximal inhibitory concentration (IC50) in assay [1] turned out to be 0.278 µg/mL.

B2: ADI-66716 (antibody, V domains shown)
VH: QLQLQESGPGLVKPSETLSLTCTVSGGSISSSDYYWGWIRQPPGKGLEWIGSIYYSGSTYYNPSLKSRVTISVDTSKNQFSLKLSSVTAADTAVYYCARGPHRQVFDYWGQGTLVTVSS
VL: DIQMTQSPSSVSASVGDRVTITCRASQGISSWLAWYQQKPGKAPKLLIYAASSLQSGVPSRFSGSGSGTDFTLTISSLQPEDFATYYCQQGSSFPYTFGGGTKVEIK
As to B2, the results for the IC50 (with Cyno IL18-IL18BP; in assay [1]) were 8.18 µg/mL and 0.208 µg/mL, respectively.

These data come from patent US20240425607A1 (published 2024).
